Test results taken from patent US20250250357A1 (NANJING ZAIMING PHARMACEUTICAL, published 2025).
Residue numbers refer to the chain shown, from its start. Like-named read-outs stand apart in the source and are kept apart here. Blank lines part the entries; values can stand above or below the binder they belong to.

Experiments:
[1] = biological target: T1, human MSLN-R3-his protein (human, UniProt Q13421 487-598); assay: ELISA on coated antigen, antibody 20 nM
T1 construct: it is put last here; also called human MSLN-R3 protein; hMSLN-R3-his; not shown: His tag
T1 sequence (Q13421 495-606): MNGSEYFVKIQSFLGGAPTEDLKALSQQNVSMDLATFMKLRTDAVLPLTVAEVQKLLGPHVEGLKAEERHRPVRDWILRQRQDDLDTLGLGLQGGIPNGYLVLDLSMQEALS

[2] = biological target: T1, human MSLN-R3-his protein; assay: ELISA on coated antigen, antibody 0.0002 nM
[3] = biological target: T1, human MSLN-R3-his protein; assay: ELISA on coated antigen, no antibody (blank, column 'none')
[4] = biological target: T1, human MSLN-R3-his protein; assay: ELISA on coated antigen, antibody 0.002 nM
[5] = biological target: T1, human MSLN-R3-his protein; assay: ELISA on coated antigen, antibody 200 nM
[6] = biological target: T1, human MSLN-R3-his protein; assay: ELISA on coated antigen, antibody 0.2 nM
[7] = biological target: T1, human MSLN-R3-his protein; assay: ELISA on coated antigen, antibody 2 nM
[8] = biological target: T1, human MSLN-R3-his protein; assay: ELISA on coated antigen, antibody 0.02 nM
[9] = biological target: T2, human MSLN-hFc recombinant protein (human, UniProt Q13421 296-580); assay: SPR (Biacore 8K), MSLN-hFc captured, antibody injected
T2 construct: Captured by an anti-human IgG antibody on the chip; also called human MSLN protein; Acro MSN-H5253
T2 sequence (Q13421 other isoform, or with tags, fused parts or gaps): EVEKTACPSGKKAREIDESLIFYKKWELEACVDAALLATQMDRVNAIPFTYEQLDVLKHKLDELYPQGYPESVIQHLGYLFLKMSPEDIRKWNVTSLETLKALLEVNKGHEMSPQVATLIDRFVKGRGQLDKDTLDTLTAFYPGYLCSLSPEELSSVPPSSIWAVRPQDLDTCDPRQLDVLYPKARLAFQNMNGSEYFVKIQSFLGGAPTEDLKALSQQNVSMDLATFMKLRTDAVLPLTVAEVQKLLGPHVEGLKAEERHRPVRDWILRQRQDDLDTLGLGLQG

[10] = biological target: T3, human MSLN on OVCAR3 tumor cells (human, UniProt Q13421 296-598); assay: FACS, OVCAR3 cells
T3 construct: whole, on cells; also called human MSLN protein
T3 sequence (Q13421 other isoform, or with tags, fused parts or gaps): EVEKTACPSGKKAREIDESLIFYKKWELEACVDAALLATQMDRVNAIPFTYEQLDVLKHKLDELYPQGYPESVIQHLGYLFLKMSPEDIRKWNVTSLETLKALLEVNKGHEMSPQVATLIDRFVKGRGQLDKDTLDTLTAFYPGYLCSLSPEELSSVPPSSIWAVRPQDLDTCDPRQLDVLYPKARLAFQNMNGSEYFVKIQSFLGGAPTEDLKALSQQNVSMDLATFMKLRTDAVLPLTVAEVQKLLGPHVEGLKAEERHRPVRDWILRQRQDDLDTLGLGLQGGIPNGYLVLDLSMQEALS

[11] = biological target: T4, human MSLN-R3 on HEK293T-hMSLN-R3 recombinant cells (human, UniProt Q13421 487-606); assay: FACS, HEK293T-hMSLN-R3 cells
T4 construct: the C-terminal limit is uncertain; also called human MSLN-R3 membrane protein
T4 sequence (Q13421 495-614): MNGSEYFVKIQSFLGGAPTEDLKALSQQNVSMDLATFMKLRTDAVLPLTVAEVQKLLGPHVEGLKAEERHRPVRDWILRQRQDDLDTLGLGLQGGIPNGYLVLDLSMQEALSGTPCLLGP

[12] = biological target: T5, monkey MSLN on HEK293T-monkey MSLN recombinant cells (monkey); assay: FACS, HEK293T-monkey MSLN cells
T5 construct: Full-length precursor as transfected; processing on the cell is not described; also called HEK293-monkey MSLN
T5 chain: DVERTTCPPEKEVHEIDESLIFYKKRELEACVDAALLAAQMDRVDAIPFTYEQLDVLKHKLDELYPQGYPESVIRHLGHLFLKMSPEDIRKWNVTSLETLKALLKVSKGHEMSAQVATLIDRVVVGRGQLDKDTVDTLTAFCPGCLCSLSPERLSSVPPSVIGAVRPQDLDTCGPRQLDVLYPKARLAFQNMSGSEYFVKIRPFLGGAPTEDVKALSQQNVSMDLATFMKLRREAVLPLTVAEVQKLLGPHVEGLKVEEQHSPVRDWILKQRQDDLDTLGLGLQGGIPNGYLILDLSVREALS

[13] = biological target: T6, human MSLN-FL-his protein (human, UniProt Q13421 296-580); assay: ELISA, coated antigen, antibody 0.2 nM
T6 construct: Made in HEK293E cells, purified on nickel column; also called hMSLN-FL-his; human MSLN full-length protein; not shown: His tag
T6 sequence (Q13421 other isoform, or with tags, fused parts or gaps): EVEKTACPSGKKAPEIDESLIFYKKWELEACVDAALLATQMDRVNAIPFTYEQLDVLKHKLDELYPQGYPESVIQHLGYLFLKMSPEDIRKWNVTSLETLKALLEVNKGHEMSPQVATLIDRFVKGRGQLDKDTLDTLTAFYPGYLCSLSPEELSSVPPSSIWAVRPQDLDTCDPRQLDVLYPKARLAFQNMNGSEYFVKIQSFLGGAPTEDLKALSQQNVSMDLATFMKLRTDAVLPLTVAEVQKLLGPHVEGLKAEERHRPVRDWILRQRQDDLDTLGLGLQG

[14] = biological target: T6, human MSLN-FL-his protein; assay: ELISA, coated antigen, antibody 0.02 nM
[15] = biological target: T6, human MSLN-FL-his protein; assay: ELISA, coated antigen, antibody 0.002 nM
[16] = biological target: T6, human MSLN-FL-his protein; assay: ELISA, coated antigen, antibody 200 nM
[17] = biological target: T6, human MSLN-FL-his protein; assay: ELISA, coated antigen, antibody 0.0002 nM
[18] = biological target: T6, human MSLN-FL-his protein; assay: ELISA, coated antigen, antibody 2 nM
[19] = biological target: T6, human MSLN-FL-his protein; assay: ELISA, coated antigen, no antibody (blank)
[20] = biological target: T6, human MSLN-FL-his protein; assay: ELISA, coated antigen, antibody 20 nM
[21] = biological target: T5, monkey MSLN on HEK293T-monkey MSLN …; assay: FACS, HEK293T-monkey MSLN cells
[22] = biological target: T4, human MSLN-R3 on HEK293T-hMSLN-R3 …; assay: FACS, HEK293T-hMSLN-R3 cells; remark: listed apart in the source

OD450 [1]: 2.55 OD
OD450 [2]: 0.06 OD
OD450 [3]: 0.07 OD
OD450 [4]: 0.11 OD
OD450 [5]: 2.56 OD
OD450 [6]: 1.96 OD
OD450 [7]: 2.54 OD
OD450 [8]: 0.38 OD
B1: S009-F7.69.8 (antibody, human IgG1, kappa, V domains shown)
VH: EVHLQQSGPELVKPGASVRIPCKASGYTFTDYNMDWVKQSHGKSLEWIGDINPDNGGTIYTQKFKGKATLTVDKSSSTAYMELRSLTSEDTAVYYCARRLHYYGSSGLDYWGQGTTLTVSS
VL: DIQMTQSPASLSAYVGETVTITCRASGNIHNYLAWYQQKQGKSPQLLVYNAKTLADGVPSRFSGSGSGTQYSLKINSLQPEDFGSYYCQHFWSTVWTFGGGTKLEIKR
notes: Human-murine chimeric antibody, human IgG1 heavy and kappa light constant regions

OD450 [13]: 2.4
OD450 [14]: 1.9
OD450 [15]: 1.25
OD450 [16]: 2.32
OD450 [17]: 0.52
OD450 [18]: 2.39
OD450 [19]: 0.06
OD450 [20]: 2.48
B5: S009-F7.25.19 chimeric antibody (antibody, human IgG1, kappa, V domains shown)
VH: QVQLQQPGTELVKPGASVKLSCKASGYTFTSYWMHWVKQRPGQGLEWIGNIIPSNGGTKYNEKFKSKATLTVDKSSSTAYMQLSSLTSEDSAVYYCSPHYYGGSPGFAYWGQGTLITVSA
VL: DIVMTQSQKFMSTSVGDRVSVICKASQNVGTNVAWYQQKPGQSPKALIYSASYRYSGVPDRFTGSGSGTDFTLTISNVQSEDLAEYFCQQYNSYPLTFGGGTKLEIKR
notes: Human-murine chimeric antibody, human IgG1/kappa constant regions

OD450 [1]: 2.52 OD
OD450 [2]: 0.31 OD
OD450 [3]: 0.08 OD
OD450 [4]: 0.71 OD
OD450 [5]: 2.92 OD
OD450 [6]: 2.5 OD
OD450 [7]: 2.75 OD
OD450 [8]: 1.32 OD
B6: S009-F7.21.16 (antibody, human IgG1, kappa, V domains shown)
VH: QVQLQQPGTELVKPGASVKLSCKASGYTFTTFWMHWVKQRPGQGLEWIGGVNPTNGGTNYNEKFRTKATLTVDKSSTTADMQLSSLTSEDSAVYYCAPHYISSRPGFAYWGQGTLVTVSG
VL: B5 VL with V15G, I22T, T72I
notes: as for B1

Maximum_MFI [21]: 317 MFI
binding result [21]: no binding
EC50 [22]: 10.2 nM
Maximum_MFI [22]: 1400 MFI
B8: F3.80.22-H8 (scFv, not shown: small tags and cut ends)
scFv: DIVMTQTPLSLPVTPGEPASISCRSSQSLEHNDGNTYLHWFLQKPGQSPQLLIYKVSNRFSGVPDRFSGSGSGTDFTLKISRVEAEDVGVYYCSQSTHVPFTFGQGTKLEIKGGGGSGGGGSGGGGSEVQLVQSGAEVKKPGATVKISCKASGYTFTDYEIHWVQQAPGKGLEWMGAFDPEIGGSAYNQKFKDRVTITADKSSSTAYMELSSLRSEDTAVYYCTDYYGSSSGYFDVWGTGTTVTVSS
notes: also called S009-F3.80.22 humanized antibody VL1a + VH4

Maximum_MFI [21]: 338 MFI
binding result [21]: no binding
EC50 [22]: 8.39 nM
Maximum_MFI [22]: 1440 MFI
B9: F3.80.22-H6 (scFv, not shown: small tags and cut ends)
scFv: B8 scFv with S203T, T239Q
notes: also called S009-F3.80.22 humanized antibody VL1a + VH2

Maximum_MFI [21]: 357 MFI
binding result [21]: no binding
Maximum_MFI [22]: 1410 MFI
B10: F3.80.22-H4 (scFv, not shown: small tags and cut ends)
scFv: B8 scFv with D33N
notes: also called S009-F3.80.22 humanized antibody VL1 + VH4

Maximum_MFI [21]: 329 MFI
binding result [21]: no binding
EC50 [22]: 3.91 nM
Maximum_MFI [22]: 1530 MFI
B12: F3.80.22-H7 (scFv, not shown: small tags and cut ends)
scFv: B8 scFv with S203T
notes: also called S009-F3.80.22 humanized antibody VL1a + VH3

Maximum_MFI [21]: 356 MFI
binding result [21]: no binding
EC50 [22]: 4.41 nM
Maximum_MFI [22]: 1790 MFI
B14: F3.80.22-H17 (scFv, not shown: small tags and cut ends)
scFv: EVQLVQSGAEVKKPGATVKISCKVSGYTFTDYEIHWVQQAPGKGLEWMGAFDPEIGGSAYNQKFKDRVTITADKSTDTAYMELSSLRSEDTAVYYCTDYYGSSSGYFDVWGQGTTVTVSSGGGGSGGGGSGGGGSDIVMTQTPLSLPVTPGEPASISCRSSQSLEHNDGNTYLHWFLQKPGQSPQLLIYKVSNRFSGVPDRFSGSGSGTDFTLKISRVEAEDVGVYYCSQSTHVPFTFGQGTKLEIK
notes: also called S009-F3.80.22 humanized antibody VH1 + VL1a

Continued, binder first:

B2: F2.23.12-H5 (scFv, not shown: small tags and cut ends)
scFv: EVQLVQSGAEVKKPGASVKVSCKASGYTFTNYWMHWVRQAPGQGLEWMGNINPSNGGPYYNERFRSRVTMTVDKSTSTAYMELSSLRSEDTAVYYCARPYYGSSYGYFDYWGQGTTVTVSSGGGGSGGGGSGGGGSDIQMTQSPSSLSASVGDRVTITCKASQDINKYIAWYQQKPGKAPKLLIHYTSELQPGVPSRFSGSGSGTDFTFTISSLQPEDIATYYCLQYANPLRTFGGGTKVEIK
notes: also called S009-F2.23.12 humanized antibody VH2 + VL1
Kd [9]: 7.74 nM
koff [9]: 0.000473 s⁻¹
kon [9]: 61200 M⁻¹ s⁻¹
EC50 [10]: 11.3 nM
Maximum_MFI [10]: 3340 MFI
EC50 [11]: 4.16 nM
Maximum_MFI [11]: 4730 MFI
EC50 [12]: 5.86 nM
Maximum_MFI [12]: 17700 MFI

B3: F2.23.12-H13 (scFv, not shown: small tags and cut ends)
scFv: B2 scFv with N55Q
notes: also called S009-F2.23.12 humanized antibody VH4 + VL1
Kd [9]: 31.1 nM
koff [9]: 0.000482 s⁻¹
kon [9]: 15500 M⁻¹ s⁻¹
EC50 [10]: 38.6 nM
Maximum_MFI [10]: 3110 MFI
EC50 [11]: 8.3 nM
Maximum_MFI [11]: 4710 MFI
EC50 [12]: 10.9 nM
Maximum_MFI [12]: 17600 MFI

B4: F2.39.3-H9 (scFv, not shown: small tags and cut ends)
scFv: EVQLVQSGAEVKKPGASVKVSCKASGYTFTNYWMHWVRQAPGQGLEWMGNINPSSGDSYYNERFMSRVTMTVDKSTSTAYMELSSLRSEDTAVYYCARSGGLWLAFWGPGTLVTVSSGGGGSGGGGSGGGGSDIVMTQSPDSLAVSLGERATINCKSSQTLLNSVSQNNYLAWYQQKPGQSPKLLIYFASTRESGVPDRFSGSGSGTDFTLTISSLQAEDVAVYYCQQHYRTPYTFGGGTKVEIK
notes: also called S009-F2.39.3 humanized antibody VH3 + VL1
Kd [9]: 0.734 nM
koff [9]: 3.19e-05 s⁻¹
kon [9]: 43500 M⁻¹ s⁻¹
EC50 [10]: 17.2 nM
Maximum_MFI [10]: 4300 MFI
EC50 [11]: 5.66 nM
Maximum_MFI [11]: 5560 MFI
EC50 [12]: 7.73 nM
Maximum_MFI [12]: 23300 MFI

B7: F3.80.22-H2 (scFv, not shown: small tags and cut ends)
scFv: B8 scFv with D33N, S203T, T239Q
notes: also called S009-F3.80.22 humanized antibody VL1 + VH2
Maximum_MFI [21]: 303 MFI
binding result [21]: no binding
EC50 [22]: 0.67 nM
Maximum_MFI [22]: 1790 MFI

B11: F3.80.22-H1 (scFv, not shown: small tags and cut ends)
scFv: B8 scFv with D33N, A151V, S203T, S204D, T239Q
notes: also called S009-F3.80.22 humanized antibody VL1 + VH1
Maximum_MFI [21]: 278 MFI
binding result [21]: no binding
EC50 [22]: 2.14 nM
Maximum_MFI [22]: 1700 MFI

B13: F3.80.22-H3 (scFv, not shown: small tags and cut ends)
scFv: B8 scFv with D33N, S203T
notes: also called S009-F3.80.22 humanized antibody VL1 + VH3
Maximum_MFI [21]: 330 MFI
binding result [21]: no binding
EC50 [22]: 4.41 nM
Maximum_MFI [22]: 1750 MFI
